Measurements: patent US20260078146A1, “EPHA2 TARGETING AGENTS AND USES THEREOF” (The Regents of the University of California, priority 2022, published 2026)
*1 amine or outer side, *2 acyl side, *3 side chain or, on linkers, in order; H or OH if unused. Where no end group is shown, it is not given here. [ ]: non-standard residue; d: D form. The star is where a group is joined. 2‑CF3‑Bip = 4-(2-trifluoromethylphenyl)-L-phenylalanine, O=C([C@H](Cc1ccc(-c2ccccc2C(F)(F)F)cc1)N[*:1])[*:2]; Phe(2-NH2) = O=C([C@H](Cc1ccccc1N[*:3])N[*:1])[*:2]; Acetyl(2-(piperazin-1-yl)) = O=C(CN1CCNCC1)*; Chg = N[C@H](C(=O)O)C1CCCCC1; GABA = NCCCC(=O)O; βAla = NCCC(=O)O

Experiments:
[1] = 8 mg/Kg daily, IV, Balb/C mice, 3 mice
MIA PaCa-2 tumors = assay: Tumor xenograft with MIA PaCa-2 cells; format: in vivo, nu/nu mice
[2] = biological target: T1, EphA2 ligand binding domain (EphA2-LBD), recombinant (UniProt P29317 27-200, limits assumed); assay: DELFIA displacement; competitor: immobilised 123B9-Biotin
T1 construct: also called EphA2 protein; isolated EphA2-LBD

[3] = biological target: T1, EphA2 ligand binding domain …; assay: ITC
[4] = dose equivalent to […] of PTX (targefrin-PTX 10 mg/Kg, targefrin-dimer-PTX 17 mg/kg), IV days 1, 4, 8, 11, 15, 18, compared to untreated and PTX groups

T1 sequence (P29317 27-200 limits assumed): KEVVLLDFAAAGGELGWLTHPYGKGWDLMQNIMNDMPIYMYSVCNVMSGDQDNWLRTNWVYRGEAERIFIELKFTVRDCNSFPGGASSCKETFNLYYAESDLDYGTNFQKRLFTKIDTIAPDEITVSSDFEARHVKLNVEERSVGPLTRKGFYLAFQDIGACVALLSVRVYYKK

CC(=O)O[C@H]1C(=O)[C@@]2(C)[C@H]([C@H](OC(=O)c3ccccc3)[C@]3(O)C[C@H](OC(=O)[C@H](O)[C@@H](NC(=O)c4ccccc4)c4ccccc4)C(C)=C1C3(C)C)[C@]1(OC(C)=O)CO[C@@H]1C[C@@H]2O [PTX, paclitaxel, reference compound]
mice found dead after the 2nd dose [1]: 2 of 3

CC(=O)O[C@H]1C(=O)[C@@]2(C)[C@H]([C@H](OC(=O)c3ccccc3)[C@]3(O)C[C@H](OC(=O)[C@H](OC(=O)CCCCCn4cc(CCCC(=O)NCCCC[C@H](NC(=O)CNC(=O)[C@H](CCCCNC(=O)CNC(=O)[C@@H]5CCCN5C(=O)[C@@H](CCCNC(=N)N)NC(=O)[C@@H](Cc5ccccc5)NC(=O)[C@H]5CCCN5C(=O)[C@H](NC(=O)[C@@H](C)NC(=O)[C@@H](CC(=O)O)NC(=O)[C@@H]5CCCN5C(=O)[C@H](Cc5ccc(-c6ccccc6C(F)(F)F)cc5)NC(=O)[C@H](C)NC(=O)[C@H](CC(C)C)NC(=O)[C@H](Cc5ccc(N)cc5)NC(=O)CN5CCNCC5)C5CCCCC5)NC(=O)CNC(=O)[C@@H]5CCCN5C(=O)[C@H](CCCNC(=N)N)NC(=O)[C@H](Cc5ccccc5)NC(=O)[C@@H]5CCCN5C(=O)[C@@H](NC(=O)[C@H](C)NC(=O)[C@H](CC(=O)O)NC(=O)[C@@H]5CCCN5C(=O)[C@H](Cc5ccc(-c6ccccc6C(F)(F)F)cc5)NC(=O)[C@@H](C)NC(=O)[C@@H](CC(C)C)NC(=O)[C@@H](Cc5ccc(N)cc5)NC(=O)CN5CCNCC5)C5CCCCC5)C(N)=O)nn4)[C@@H](NC(=O)c4ccccc4)c4ccccc4)C(C)=C1C3(C)C)[C@]1(OC(C)=O)CO[C@@H]1C[C@@H]2O [targefrin-dimer-PTX, [PiperazAcAcid-(2-NH2-Phe)-L-A-(2-CF3-Bip)-PD-A-Chg-PFRPG]2-KGK-(Linker)-PTX]
antitumor effect (tumor volume) (MIA PaCa-2 tumors; [4]): significant antitumor effect | antitumor effect (tumor volume) (MIA PaCa-2 tumors; lower dose 10 mg/kg, equivalent to 1.5 mg/kg of PTX, compared to PTX […] group): more effective than the PTX treated group

PiperazAcAcid-(2-NH2-Phe)-L-A-(2-CF3-Bip)-PD-A-Chg-PFRPG-K-(Linker)-PTX (XLAXPDAXPFRPGK; not fully specified; non-natural residues) [targefrin-PTX]
antitumor effect (tumor volume) (MIA PaCa-2 tumors; [4]): significant antitumor effect

B1: dimeric targefrin agent 29 (n = 2, β-Ala spacer) (peptide)
peptide: {Acetyl(2-(piperazin-1-yl))}-[Phe(2-NH2)]LA[2‑CF3‑Bip]PDA[Chg]PFRP[βAla]
chain: Lys-NH2
modifications: also: branching Lys carries a second identical arm (dimer)
IC50 [2]: 7.6 nM

B2: dimeric targefrin agent 30 (n = 3, GABA spacer) (peptide)
peptide: {Acetyl(2-(piperazin-1-yl))}-[Phe(2-NH2)]LA[2‑CF3‑Bip]PDA[Chg]PFRP[GABA]
chain: Lys-NH2
modifications: also: branching Lys carries a second identical arm (dimer)
IC50 [2]: 5.3 nM

B3: targefrin-dimer (agent 28, n = 1, Gly-Lys linker) (peptide)
peptide: XLAXPDAXPFRPG
chain: K
modifications: branching Lys that carries one arm on each of its two amines; C-terminal CONH2; N-terminal PiperazAcAcid cap; X1 = 2-NH2-Phe; X4 = 2-CF3-Bip; X8 = Chg; the C-terminal Gly is joined to an amine of the branching Lys
IC50 [2]: 6.5 nM

B4: targefrin (agent 27) (peptide)
peptide: XLAXPDAXPFRP
modifications: N-terminal PiperazAcAcid cap; X1 = 2NH2-Phe; X4 = 2-CF3-Bip; X8 = Chg; C-terminal CONH2
notes: also called targefrin monomer; monomeric version of targefrin
-TΔS [3]: 9.7 kcal/mol | ΔH [3]: -20.2 kcal/mol
